The target of assay [1] is T1, recombinant human IGF-II (Insulin-like Growth Factor II) (human, UniProt P01344 25-91, biotinylated (Biotinyl-IGF-II, GroPep) where immobilised in SPR, site not stated; not biotinylated in ITC and as SPR analyte).
T1 construct: also called IGF2; IGF-2
Nature of the assay: SPR, IGF-II immobilised, kinetic fit. The procedure:
(§1) Kinetic analysis by Surface Plasmon Resonance (SPR) was conducted on a BIAcore 3000 biosensor (BIAcore, Uppsala, Sweden) at 25° C. in HBS-EP (10 mM HEPES, pH 7.4, 150 mM NaCl, 3 mM EDTA, 0.005% surfactant P20) at a flow rate of 40 μl/min. […] Kinetic experiments consisted of a two minute injection of analyte followed by a 100 s dissociation phase in running buffer, after which the binding surface was regenerated with a 2 minute injection of 2 M MgCl₂. A blank flow cell was used for in-line reference subtraction of changes due to differences in refractive index of running buffer versus sample and a buffer-only injection was used to subtract instrument noise and drift. Injections were performed in duplicate for each concentration and in a randomised order. Kinetic parameters were determined by global fitting of sensorgrams to a two-state (conformational change) binding model using BIAevaluation software version 4.0.1. In all cases the minor component made an insignificant contribution to the overall affinity and as such only the kinetic parameters of the major binding component were used. For each interaction the dissociation affinity constant (KD) was also calculated by fitting of the response of each concentration at equilibrium to a steady-state affinity model using BIAevaluation. In order to investigate the influence of ionic strength, kinetic experiments were conducted in HBS-EP running buffers containing the desired NaCl concentration. In each case, analyte samples were made up in the appropriate running buffer prior to injection.
A general note: Surface plasmon resonance follows binding to a sensor surface in real time, without labels.

In assay [2] the target is T1, recombinant human IGF-II (Insulin-like …). Nature of the assay: SPR, IGF-II immobilised, steady state. The procedure:
as §1, with “In order to investigate the influence of ionic strength, kinetic experiments were conducted in HBS-EP running buffers containing the desired NaCl concentration. In each case, analyte samples were made up in the appropriate running buffer prior to injection.” left out

Assay [3] has as its target T2, recombinant human IGF-I (Insulin-like Growth Factor I) (human, UniProt P05019 49-118, biotinylated (Biotinyl-IGF-I, GroPep), site not stated).
T2 construct: also called IGF1; Biotinyl-IGF-I
Nature of the assay: SPR, biotinylated IGF-I immobilised. As to the method: (§2) Kinetic experiments consisted of a two minute injection of analyte followed by a 100 s dissociation phase in running buffer, after which the binding surface was regenerated with a 2 minute injection of 2 M MgCl₂. A blank flow cell was used for in-line reference subtraction of changes due to differences in refractive index of running buffer versus sample and a buffer-only injection was used to subtract instrument noise and drift. Injections were performed in duplicate for each concentration and in a randomised order. Kinetic parameters were determined by global fitting of sensorgrams to a two-state (conformational change) binding model using BIAevaluation software version 4.0.1. In all cases the minor component made an insignificant contribution to the overall affinity and as such only the kinetic parameters of the major binding component were used. For each interaction the dissociation affinity constant (KD) was also calculated by fitting of the response of each concentration at equilibrium to a steady-state affinity model using BIAevaluation. In order to investigate the influence of ionic strength, kinetic experiments were conducted in HBS-EP running buffers containing the desired NaCl concentration. In each case, analyte samples were made up in the appropriate running buffer prior to injection.
(§3) The affinity of versions of Fc-tagged domain 11 fusion proteins, and domain 11 constructs, for IGF-II were compared using surface plasmon resonance (BIAcore 3000). Attempts were made to immobilize Fc-tagged domain 11 proteins upon a sensor chip surface (CM5 and CM5-proteinA) but we encountered similar problems as described above with immobilised monomeric domain 11. Instead, immobilisation of biotinylated IGF-I and IGF-II on separate flow cells of a streptavidin coated sensor chip (BIAcore) generated reproducible sensorgram profiles when Fc-tagged and untagged domain 11 proteins were passed over the surface as analytes. The Fc-tagged domain 11 kinetic data performed in triplicate generated sensorgrams that were analyzed using a bivalent analyte model.

The target of assay [4] is T1, recombinant human IGF-II (Insulin-like …). Nature of the assay: SPR, IGF-II immobilised, bivalent analyte model. The procedure: as §2, with “In order to investigate the influence of ionic strength, kinetic experiments were conducted in HBS-EP running buffers containing the desired NaCl concentration. In each case, analyte samples were made up in the appropriate running buffer prior to injection.” left out
(§4) The affinity of versions of Fc-tagged domain 11 fusion proteins, and domain 11 constructs, for IGF-II were compared using surface plasmon resonance (BIAcore 3000). […] The Fc-tagged domain 11 kinetic data performed in triplicate generated sensorgrams that were analyzed using a bivalent analyte model.

Assay [5] shares this target. Nature of the assay: SPR, IGF-II immobilised, bivalent analyte model, ka1. The procedure: as §2, with “In order to investigate the influence of ionic strength, kinetic experiments were conducted in HBS-EP running buffers containing the desired NaCl concentration. In each case, analyte samples were made up in the appropriate running buffer prior to injection.” left out
as §4

For assay [6] the target is unchanged. Nature of the assay: SPR, IGF-II immobilised, bivalent analyte model, kd1. The procedure:
as §2, with “In order to investigate the influence of ionic strength, kinetic experiments were conducted in HBS-EP running buffers containing the desired NaCl concentration. In each case, analyte samples were made up in the appropriate running buffer prior to injection.” left out
as §4

Assay [7] shares this target. Nature of the assay: SPR, biotinylated IGF-II immobilised. The procedure:
as §2, with “In order to investigate the influence of ionic strength, kinetic experiments were conducted in HBS-EP running buffers containing the desired NaCl concentration. In each case, analyte samples were made up in the appropriate running buffer prior to injection.” left out
as §4

Assay [8] has the same target. Nature of the assay: SPR, IGF-II immobilised. The procedure: as §2, §3
Assay [9] shares this target. Nature of the assay: SPR, IGF-II immobilised, kinetic fit. As to the method:
(§5) Duplicate analyte injections were performed at concentrations of 4096, 2048, 1024, 512, 256, 128, 64, 32, 16 and 8 nM.
as §1, with “BIAevaluation.” for “BIAevaluation. In order to investigate the influence of ionic strength, kinetic experiments were conducted in HBS-EP running buffers containing the desired NaCl concentration. In each case, analyte samples were made up in the appropriate running buffer prior to injection.”
This is another data set of the same source.

The target is the same in assay [10]. Nature of the assay: SPR, IGF-II immobilised, kinetic fit. The essentials: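 Pichia pastoris-secreted, His-tag-purified domain 11 proteins were injected in duplicate, in randomised order, over ~50 RU biotinylated IGF-II captured on a streptavidin Sensor Chip SA. Runs used a BIAcore 3000 at 25° C in HBS-EP at 40 μl/min, with 2 min injections, 100 s dissociation and 2 M MgCl₂ regeneration. Analyte ran at 4096–8 nM, or 16384–32 nM for three constructs. Association and dissociation rates and Kd came from global sensorgram fitting in BIAevaluation 4.0.1, after blank-flow-cell and buffer-injection subtraction.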
This is another data set of the same source.

Assay [11] has the same target. Nature of the assay: SPR, IGF-II immobilised, steady state. The procedure:
as §5
as §1, with “BIAevaluation.” for “BIAevaluation. In order to investigate the influence of ionic strength, kinetic experiments were conducted in HBS-EP running buffers containing the desired NaCl concentration. In each case, analyte samples were made up in the appropriate running buffer prior to injection.”
The source holds these as a separate data set.

Assay [12] has the same target. Nature of the assay: SPR, IGF-II immobilised, steady state. Summed up:
(§6)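 Pichia pastoris-secreted, His-tag-purified domain 11 proteins were injected in duplicate over ~50 RU biotinylated IGF-II on a streptavidin Sensor Chip SA. Runs used a BIAcore 3000 at 25° C in HBS-EP at 40 μl/min, with 2 min injections and blank-flow-cell and buffer-injection subtraction. Analyte ran at 4096–8 nM, or 16384–32 nM for three constructs.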
The source holds these as a separate data set.

The target is the same in assay [13]. Nature of the assay: SPR, steady-state KD relative to wild type. As to the method: as §5
as §1, with “BIAevaluation.” for “BIAevaluation. In order to investigate the influence of ionic strength, kinetic experiments were conducted in HBS-EP running buffers containing the desired NaCl concentration. In each case, analyte samples were made up in the appropriate running buffer prior to injection.”

Assay [14] has the same target. Nature of the assay: SPR, steady-state KD relative to wild type. Summed up:
as §6
The source holds these as a separate data set.

Read-outs that look alike come from different tables or passages of the source.

T2 sequence (P05019 49-118 limits assumed): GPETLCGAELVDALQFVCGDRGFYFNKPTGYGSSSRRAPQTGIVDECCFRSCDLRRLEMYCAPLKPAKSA
T1 sequence (P01344 25-91 limits assumed): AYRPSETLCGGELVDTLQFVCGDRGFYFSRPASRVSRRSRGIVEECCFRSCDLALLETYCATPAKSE

B1: IGF2R domain 11 expressed in E. coli (pET-15), refolded and purified (receptor)
chain: NEHDDCQVTNPSTGHLFDLSSLSGRAGFTAAYSEKGLVYMSICGENENCPPGVGACFGQTRISVGKANKRLRYVDQVLQLVYKDGSPCPSKSGLSYKSVISFVCRPEAGPTNRPMLISLDKQTCTLFFSWHTPLACEQAT
notes: also called purified 11 from E. coli; native domain 11 protein
In the case of B1, in assay [1], the Kd is 114 nM, the koff came to 0.063 s⁻¹ and the association rate constant (kon) came out at 553000 M⁻¹ s⁻¹. Besides, in assay [2], the Kd worked out at 114 nM.

B2: Fc-tagged wild-type IGF2R domain 11 (11-Fc), human IgG1 Fc at the C-terminus, homodimer from Drosophila D.Mel-2 cells (Fc fusion)
chain: NEHDDCQVTNPSTGHLFDLSSLSGRAGFTAAYSEKGLVYMSICGENENCPPGVGACFGQTRISVGKANKRLRYVDQVLQLVYKDGSPCPSKSGLSYKSVISFVCRPEAGPTNRPMLISLDKQTCTLFFSWHTPLACEQAT
modifications: N-glycosylated with two 982.9 Da molecules of Man3GlcNAc2
notes: also called 11^Wild type-Fc; 11^Wild type -Fc; not shown: human IgG1 Fc domain, amplified from IMAGE clone 4851063
For B2, in [3], the binding result is listed as “no binding”. The Kd in assay [4] was 3.26 nM. In addition, the kon in assay [5] was found to be 1.36e+06 M⁻¹ s⁻¹. Further, the koff in assay [6] came to 0.00445 s⁻¹.

B3: Fc-tagged null mutant IGF2R domain 11 (11^I1572A-Fc), human IgG1 Fc at the C-terminus, homodimer from Drosophila D.Mel-2 cells (Fc fusion)
chain: NEHDDCQVTNPSTGHLFDLSSLSGRAGFTAAYSEKGLVYMSICGENENCPPGVGACFGQTRASVGKANKRLRYVDQVLQLVYKDGSPCPSKSGLSYKSVISFVCRPEAGPTNRPMLISLDKQTCTLFFSWHTPLACEQAT
modifications: N-glycosylated with two 982.9 Da molecules of Man3GlcNAc2
notes: not shown: human IgG1 Fc domain, amplified from IMAGE clone 4851063
In the case of B3, the binding result in assay [3] and in [7] was “no binding” in each case.

B4: Fc-tagged enhanced mutant IGF2R domain 11 (11^E1544K-Fc), human IgG1 Fc at the C-terminus, homodimer from Drosophila D.Mel-2 cells (Fc fusion)
chain: NEHDDCQVTNPSTGHLFDLSSLSGRAGFTAAYSKKGLVYMSICGENENCPPGVGACFGQTRISVGKANKRLRYVDQVLQLVYKDGSPCPSKSGLSYKSVISFVCRPEAGPTNRPMLISLDKQTCTLFFSWHTPLACEQAT
modifications: N-glycosylated with two 982.9 Da molecules of Man3GlcNAc2
notes: as for B3
Take B4: in assay [8], the “Ru response amplitude relative to 11-Fc at equal concentrations” value is around 2 fold and the “molar affinity relative to 11-Fc” value is around 2 fold. For the same molecule, the binding result in assay [3] was “no binding”. For the same molecule, in [4], the Kd was 1.79 nM. The kon in assay [5] is 2.23e+06 M⁻¹ s⁻¹. In addition, the koff in [6] came out at 0.00401 s⁻¹.

B5: IGF2R domain 11 E1544V (amino acids 1511-1650, C-terminal His6 tag, from Pichia pastoris) (receptor)
chain: NEHDDCQVTNPSTGHLFDLSSLSGRAGFTAAYSVKGLVYMSICGENENCPPGVGACFGQTRISVGKANKRLRYVDQVLQLVYKDGSPCPSKSGLSYKSVISFVCRPEAGPTNRPMLISLDKQTCTLFFSWHTPLACEQATHHHHHH
B5: the Kd in [9] amounted to 49.8 nM; in assay [10], 60.5 nM; in [11], 52.7 nM; in [12], 52.7 nM. The dissociation rate constant (koff) is 0.041 s⁻¹ in assay [9] and 0.0675 s⁻¹ in assay [10]. Moreover, the kon in [9] is 837000 M⁻¹ s⁻¹; in assay [10] it was 1.12e+06 M⁻¹ s⁻¹. The “Relative Affinity” value in [13] and in assay [14] was 1.96 fold (wild type = 1.00) each time.

B6: IGF2R domain 11 I1572A (amino acids 1511-1650, C-terminal His6 tag, from Pichia pastoris) (receptor)
chain: NEHDDCQVTNPSTGHLFDLSSLSGRAGFTAAYSEKGLVYMSICGENENCPPGVGACFGQTRASVGKANKRLRYVDQVLQLVYKDGSPCPSKSGLSYKSVISFVCRPEAGPTNRPMLISLDKQTCTLFFSWHTPLACEQATHHHHHH
notes: also called null mutant
Regarding B6, the binding result in [3] is on record as “no binding (tested: 16384 nM highest analyte concentration)”.

B7: IGF2R domain 11 with cysteine at position 1544 (E1544C) (receptor)
chain: NEHDDCQVTNPSTGHLFDLSSLSGRAGFTAAYSCKGLVYMSICGENENCPPGVGACFGQTRISVGKANKRLRYVDQVLQLVYKDGSPCPSKSGLSYKSVISFVCRPEAGPTNRPMLISLDKQTCTLFFSWHTPLACEQATHHHHHH
Take B7: in assay [8], the binding result was “binds”.

What is called koff is the first-order rate constant of dissociation. Usually kon stands for the second-order rate constant of association.

Source of the values: patent US20090304651A1 (published 2009).
